Reference: article PMC7115876 (Nature, 2020)

Target: human β-arrestin 1 (L68C, R169E) (human, UniProt P49407 2-418, L68C | R169E)
Assay: cryo-EM structure

human β-arrestin 1 (L68C, R169E), sequence (P49407 2-418 L68C/R169E): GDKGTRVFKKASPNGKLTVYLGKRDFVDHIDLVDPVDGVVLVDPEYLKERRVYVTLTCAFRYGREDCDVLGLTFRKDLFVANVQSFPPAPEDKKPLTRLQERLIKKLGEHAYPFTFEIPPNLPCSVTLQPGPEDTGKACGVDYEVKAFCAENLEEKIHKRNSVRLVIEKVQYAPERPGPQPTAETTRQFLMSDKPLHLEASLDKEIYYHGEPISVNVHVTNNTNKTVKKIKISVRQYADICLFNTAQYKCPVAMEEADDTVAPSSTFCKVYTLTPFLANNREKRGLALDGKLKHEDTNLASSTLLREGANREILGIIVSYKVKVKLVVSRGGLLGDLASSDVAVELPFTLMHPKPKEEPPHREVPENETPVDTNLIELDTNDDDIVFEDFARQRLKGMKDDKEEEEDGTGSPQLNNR

B1: β1AR6P (turkey β1AR construct β83 ligated by sortase A to the phosphopeptide V2R6P) (receptor)
chain: not shown
modifications: six phosphoresidues in the V2R6P part: GGGDE[pS]A[pT][pT]A[pS][pS][pS]LAKDTSS
  binding result: binds
